Test results published in patent publication US12173330B2, “Method for producing hydroxy-L-pipecolic acid” (API CORPORATION, priority 2015, dated 2024).

Key:
[1] = Catalytic efficiency (kcat/Km) of L-pipecolic acid hydroxylases with L-proline (Example 3); assay type: biochemical; settings: for hydroxy-L-proline detected from the reaction solution: L-proline as substrate, Example 3, in words; for Activity, Substrate: L-proline (cell spanning Km to kcat/Km): in words
Description: Each of the obtained recombinant E. coli strains in a volume of 0.6 mL was recovered by centrifugation and was suspended in 0.5 mL of 50 mmol/L MES (2-morpholinoethanesulfonic acid) buffer at pH 6. The container containing the suspension was placed in ice-water bath to perform sonication and then spun at 12,000 rpm. The obtained supernatant was used as an enzyme solution in Example 3.
Subsequently, 0.05 mL of 1 mol/L hydrochloric acid was added to stop the reaction.
The reaction using L-proline as a substrate was carried out under the same conditions as in the above reaction using L-pipecolic acid.
Then, each reaction solution was treated using 1-fluoro-2,4-dinitrophenyl-5-L-alaninamide (FDAA) (manufactured by Tokyo Chemical Industry Co., Ltd.) according to a method as described below, to obtain a FDAA-derivative of a hydroxy-L-pipecolic acid or hydroxy-L-proline included in each reaction solution.
To the reaction solution after stopping the reaction, 0.05 mL of 1 mol/L sodium hydroxide was added for neutralization. After centrifuging the solution at 12,000 rpm, 15 μL of 0.5 mol/L borate buffer (pH 9) was added to 15 μL of the obtained supernatant, followed by further addition of 30 μL of 20 mmol/L FDAA solution in acetone and incubation at 40° C. for one hour. Subsequently, 10 μL of 1 mol/L hydrochloric acid was added to stop the derivatization reaction. The resulting solution was diluted by adding 80 μL of methanol, and then centrifuged at 12,000 rpm. The obtained supernatant was used as a FDAA derivative solution.
The amount of produced hydroxy-L-pipecolic acid or hydroxy-L-proline was analyzed with UPLC-MS (manufactured by Waters Co.).
An aliquot containing 5 μg of total protein was taken from each enzyme solution obtained in Example 2, loaded on each lane, and then electrophoresed on polyacrylamide gel. The obtained electrophoretogram was analyzed using the image analysis software Image Lab3.0 (manufactured by Bio-Rad Laboratories, Inc.) to determine the content of each hydroxylase. A carbonic anhydrase (manufactured by Sigma-Aldrich Co. LLC) was used as a quantification reference. The content of a hydroxylase of interest was calculated from the signal intensity of the enzyme of interest, based on the signal intensities of bands corresponding to 200 ng, 400 ng and 600 ng of the quantification reference provided for the electrophoresis.
The catalytic efficiency of each enzyme was calculated based on the Michaelis-Menten kinetic equation.
It is known that, in FIG. 1, the reciprocal of each intercept with the x-axis, multiplied with −1, represents a km value (mmol/L) and the reciprocal of each intercept with the y-axis represents a Vmax value (U/mg), the maximum rate of reaction.
The catalytic ability per molecule of the enzyme (kcat) can be calculated from the Vmax and the molecular weight of the enzyme. Table 5 indicates the result of the calculation of catalytic efficiency (kcat/km), which is an index representing the catalytic ability of an enzyme, based on the obtained kcat and km values.

[2] = Production of hydroxy-L-pipecolic acids by culture of recombinant E. coli expressing the hydroxylase (Example 5); assay type: cell-based, E. coli BL21 (DE3); settings: for Accumulation of (4S)-hydroxy-L-proline: 120 hours; for Accumulation amount of (4S)-hydroxy-L-proline / Accumulation amount of (5S)-Hydroxy-L-pipecolic acid / Accumulation amount of L-pipecolic acid / Accumulation amount of (4R)-hydroxy-L-proline / Accumulation amount of (4S)-hydroxy-L-pipecolic acid: 20 mmol/L L-pipecolic acid in medium, 30° C.; for Accumulation of (4R)-hydroxy-L-proline: 64 hours; for Conversion of the substrate to (4S)-hydroxy-L-pipecolic acid: incubation for 64 hours
[3] = Reactivity comparison of L-pipecolic acid 5-hydroxylases, substrate L-pipecolic acid (Example 4); settings: 10 mmol/L substrate, 30° C., 30 minutes; hydroxy-L-pipecolic acid-producing activity set to 100
Description: (§1) The detection of the products was based on the absorbance at a wavelength of 340 nm.
(§2) The activity values were evaluated by the amount of a product per gram of total protein (U/g-protein).

[4] = Reactivity comparison of L-pipecolic acid 5-hydroxylases, substrate L-proline (Example 4); settings: for Relative activity, Substrate: L-proline (hydroxy-L-proline-producing activity, 100 = hydroxy-L-pipecolic acid-producing activity): 10 mmol/L substrate, 30° C., 30 minutes; for hydroxy-L-proline detected from the reaction solution: Example 4, 10 mmol/L L-proline, in words
Description: as §1, §2

Molecule	hydroxy-L-proline detected from the reaction solution [1]	Accumulation of (4S)-hydroxy-L-proline ([2]; in words)	Accumulation amount of (4S)-hydroxy-L-proline ([2]; after 120 hours)	Accumulation amount of (5S)-Hydroxy-L-pipecolic acid ([2]; after 120 hours)	Accumulation amount of L-pipecolic acid ([2]; after 120 hours)	Conversion of the substrate to (5S)-hydroxy-L-pipecolic acid ([2]; incubation for 120 hours, in words)	Relative activity, Substrate: L-pipecolic acid [3]	Relative activity, Substrate: L-proline (hydroxy-L-proline-producing activity, 100 = hydroxy-L-pipecolic acid-producing activity) [4]	hydroxy-L-proline detected from the reaction solution [4]	Accumulation of (4R)-hydroxy-L-proline ([2]; in words)	Accumulation amount of (4R)-hydroxy-L-proline ([2]; after 64 hours)	Accumulation amount of (4S)-hydroxy-L-pipecolic acid ([2]; after 64 hours)	Accumulation amount of L-pipecolic acid ([2]; after 64 hours)	Conversion of the substrate to (4S)-hydroxy-L-pipecolic acid ([2]; in words)	Activity, Substrate: L-proline (cell spanning Km to kcat/Km) [1]
KjPH: amino acid hydroxylase from Kordia jejudonensis, GenBank WP_046758372, SEQ ID NO: 18 (protein, listed as Kordia jejudonensis) MESKIIGKVNFEEHLLDKELKLIDTFEFNDSYSEYASGIWKTCMLWNRSGQKDDHLSIEHDTYVKPTEYGKQLAYVNEIIANTFKKEHIKTVRLFMCINGLIIPHKDYLEFKKGFTRIHIPLKINEHALTSEEDVVYNMQKGEIWFIEGRKIHSAANFSKVKRINLVIDFAPDIPFEELFLNSENYQPNLIPKISQRTQLKEEELGYIKGLSKIINEMNFDDILSILSKIHFYRNVSSELVFGWLDEIATASNNYNIQRKAQEVTDLLIRKGPINN	small amount of hydroxy-L-proline was detected														
SruPH: L-pipecolic acid cis-5-hydroxylase from Segniliparus rugosus ATCC BAA-974, GenBank EFV12517, SEQ ID NO: 4 (protein, listed as Segniliparus rugosus) MKSYSLGKFEDRSIDSLIEEASGLPDSAYSSAYQEYSIGLWDTATLWNERGNESGEVSEHAAAAAPTAIGRSTPRLNEFVRAKFNVDVLRAVRLFRARQGAIIIPHRDYLEHSNGFCRIHLPLVTTPGARNSENNEVYRMLPGELWFLDSNEVHSGGVLDSGTRIHLVLDFTHEHNENPAAVLKNADRLRPIARDPRISRSKLDHEALESLIRGGRVVTLAMWPALVQMLARIHLTSDAHPAELYDWLDDLADRSGNDELVAEARRMRRYFLTDGISRTPSFERFWRELDAARKGELVS	small amount of hydroxy-L-proline was detected	Accumulation of (4S)-hydroxy-L-proline was confirmed	1.8 mmol/L	22.5 mmol/L	0.1 mmol/L	almost the entire amount of the substrate was allowed to convert to (5S)-hydroxy-L-pipecolic acid	100%	59%	small amount of hydroxy-L-proline was detected						
XdPH: L-proline cis-4-hydroxylase from Xenorhabdus doucetiae FRM16, GenBank CDG16639, SEQ ID NO: 8 (protein, listed as Xenorhabdus doucetiae) MMSAKLLASIELNQEQIEHDLNIVGSEILDVAYSEYACGNWGTITLWNHSGDAGDQTSREYVGQARPTELGQQLDCINQLIRNNFNISLIKSVRIFRSYNGGAIYPHIDYLEFNQGFKRVHLVLKSDRSCLNSEENTVYHMLPGEVWFVDGHSAHSAMSLSRVGKYSLVLDFDSGAKFEDLYSESHTLCVDNLEPDIIHDRQPLPTSLRDSLAHIAEHADEFNIQSILFLATRFHFSYAVSIREYFQLLDECFSRNPYKSVRERYEALKDILVRSGYTSHNVNHFNSLSGVTIG	small amount of hydroxy-L-proline was detected	Accumulation of (4S)-hydroxy-L-proline was confirmed	0.3 mmol/L	15.2 mmol/L	10.6 mmol/L		100%	37%	small amount of hydroxy-L-proline was detected						
CgPH: L-pipecolic acid trans-4-hydroxylase from Colletotrichum gloeosporioides Nara qc5, GenBank ELA34460, SEQ ID NO: 12 (protein, Colletotrichum gloeosporioides) MSDKGATLDMSLFFGTPEEKGYFCTELLRLLKLRGGVKIQNHSIPDEDIHKLFDMSRKFFALPLETKMEAKHPPQANPNRGYSFIGQENVANISGYEKGLGPGKTRDIKETLDMGSAQDDLVDNLWIPEESLPGFRGFMESFYEKAFKTEMQLLSALAIALGVSEDHMKTLHNRAENEFRLLHYPAIPATELADGTATRIAEHTDFGTITMLFQDSVGGLQVEDQTQPGVFRSVESEKPTDIILNIGDSLQRLTNDTFRAACHRVTYPPAIKARDNVQIPERYSIAYFVKPNRHASLLPLKEFITDATPCRYEDVTAWEWNNRRITKLFG	no hydroxy-L-proline was detected									no accumulation of (4R)-hydroxy-L-proline was confirmed	0 mmol/L	19.1 mmol/L	0.2 mmol/L	a major amount of the substrate was allowed to convert to (4S)-hydroxy-L-pipecolic acid	(No activity)
SmPH: L-proline cis-4-hydroxylase from Sinorhizobium meliloti 1021, GenBank CAC47686, SEQ ID NO: 10 (protein, listed as Sinorhizobium meliloti) MSTHFLGKVKFDEARLAEDLSTLEVAEFSSAYSDFACGKWEACVLRNRTGMQEEDIVVSHNAPALATPLSKSLPYLNELVETHFDCSAVRYTRIVRVSENACIIPHSDYLELDETFTRLHLVLDTNSGCANTEEDKIFHMGLGEIWFLDAMLPHSAACFSKTPRLHLMIDFEATAFPESFLRNVEQPVTTRDMVDPRKELTDEVIEGILGFSIIISEANYREIVSILAKLHFFYKADCRSMYDWLKEICKRRGDPALIEKTASLERFFLGHRERGEVMTY	small amount of hydroxy-L-proline was detected	Accumulation of (4S)-hydroxy-L-proline was confirmed	0.2 mmol/L	9.4 mmol/L	5.6 mmol/L		100%	46%	small amount of hydroxy-L-proline was detected						
PcPH: L-pipecolic acid trans-4-hydroxylase from Penicillium chrysogenum Wisconsin 54-1255, GenBank XP_002558179, SEQ ID NO: 14 (protein, listed as Penicillium chrysogenum) MSQALDLSLLKGSPEERDEVSAALLDTLKTRGVAKLKNHGLPEDLIAEMFDYTRRFFSLSLEDKMTAKHPPEANPNRGYSYVGQESVSSISGYEKGLPQGKTIRDIKETLDMGSPHDSLVDNIWVAEEKLPGFRKFMEDFYESCFKVELEILDALAQALEISAPDLRLLHNKAENEFRLLHYPAVPASALEDGTATRIAEHTDFGTITMLFQDSTGGLQVEDQTNLGTFHDVVSGGKSEIILNIGDSLQRLTNDTFMAACHRVTYPPTVKVGSDVVIPERYSVAYFAKPNRIASLFPLKKFITPATPCKYEDITAWDYNNLRIAKLFS	no hydroxy-L-proline was detected									no accumulation of (4R)-hydroxy-L-proline was confirmed	0 mmol/L	17.4 mmol/L	2.1 mmol/L	a major amount of the substrate was allowed to convert to (4S)-hydroxy-L-pipecolic acid	(No activity)
